Common to all, as to test: purified protein
What all share (details): 5 mM MgCl2, 200 mM Tricine-NaOH pH 7.4, 37 °C

Substrate in data set [1]: O=C(O)COP(=O)(O)O
Substrate in data set [2]: C[C@H](OP(=O)(O)O)C(=O)O
Substrate in data set [3]: O=P(O)(O)OC(CO)CO

B1: PbPGP (Plasmodium berghei ANKA) (protein)
chain: MSLIVSEASQNNYFKDSENSYNSFMKEWKIEKRVNVKDLYQNFEVFFFDCDGVLWRGDTVINGAIEVINKLISDNKKVYFITNNSTKSRDTLLGKFHKLGFTCVKKEHIICTSYAIAKYFHSKEEYKSRKKKIYVIGEKGICDELDALNLVWLGSYKDNDKKVIIQDEGEIQIDNNIGAVVVAIDFNINYYKIQYAQLCINGLDAEFIVSNKDPLANFTSNQQWAGTGSIVASIEQVSFKKPKVLGKPNLFMIESVLKSLNIDLSKVVMIGDRLDTDIFFAQNCKIKSILVSTGVTDANVFLNHNNLNIKPDYFMKSILEFL
For B1, the Km (in general, the concentration of substrate that gives half-maximal velocity) in the data set “purified protein [1]” came to 2526 ± 494 µM; in the data set “purified protein [2]”, 4773 ± 574 µM; in “purified protein [3]”, 2110 ± 11 µM. Further, the figures for the kcat in the data set “purified protein [1]”, in the data set “purified protein [2]” and in “purified protein [3]” were 75.15 ± 7.86 s⁻¹, 67.34 ± 8.31 s⁻¹ and 10.18 ± 0.08 s⁻¹, respectively.

The values are drawn from article doi:10.1101/495473v2.
